The values below come from publication PMC6430648.

One series addresses PCSK9 (UniProt Q8NBP7 153-692). Briefly: SPR.
The target of the next series is IL-6 (UniProt P05231 30-212). Briefly: SPR.
Chain of IL-6 (P05231 30-212): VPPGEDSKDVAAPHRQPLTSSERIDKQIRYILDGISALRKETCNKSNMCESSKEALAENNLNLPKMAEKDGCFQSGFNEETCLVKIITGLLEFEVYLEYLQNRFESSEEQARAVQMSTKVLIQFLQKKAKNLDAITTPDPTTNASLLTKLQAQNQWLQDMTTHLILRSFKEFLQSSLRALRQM

Chain of PCSK9 (Q8NBP7 153-692): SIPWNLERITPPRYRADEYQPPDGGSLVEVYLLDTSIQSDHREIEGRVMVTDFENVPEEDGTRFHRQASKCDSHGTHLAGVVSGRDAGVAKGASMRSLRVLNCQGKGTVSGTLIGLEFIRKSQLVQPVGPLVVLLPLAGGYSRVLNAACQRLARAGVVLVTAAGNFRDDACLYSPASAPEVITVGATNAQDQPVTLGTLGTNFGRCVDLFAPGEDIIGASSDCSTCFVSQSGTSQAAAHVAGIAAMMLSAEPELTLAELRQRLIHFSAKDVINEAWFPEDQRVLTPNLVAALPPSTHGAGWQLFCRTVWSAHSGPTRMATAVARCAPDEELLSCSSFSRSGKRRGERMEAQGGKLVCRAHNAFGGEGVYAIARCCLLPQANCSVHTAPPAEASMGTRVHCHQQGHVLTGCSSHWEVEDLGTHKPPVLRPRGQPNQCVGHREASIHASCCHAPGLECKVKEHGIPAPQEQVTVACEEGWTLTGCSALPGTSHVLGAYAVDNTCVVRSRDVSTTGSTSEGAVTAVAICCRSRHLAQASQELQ

B1: PCSK9 Unfunctionalized-3 (ssDNA)
DNA: CGAATCAGATTGGACCAGCACCCTCCGTCTCCGCTCCCCTCGTCTTGTTGTTTCCCTTTCCCTGAGTCCAGATGTAGGTAG
B1: the binding signal in the series with PCSK9 amounted to 34 %Rmax.

B2: IL-6 Unfunctionalized-1 (ssDNA)
DNA: CTCGGATGAACCTGGACTTTATTGCACTGGCTGTACTTTTCGTATCCATGGTCATCTTTTCTAGCATCGAAGCCAAGATTC
In the series with IL-6, B2 came in with a binding signal of 4 %Rmax.

B3: IL-6 Unfunctionalized-5 (ssDNA)
DNA: CTCGGATGAACCTGGACTTCTTCATTGCGCTGGTGCCTGCCATCCTTGTTCCATCCCCTTTGCGCATCGAAGCCAAGATTC
Turning to B3, the binding signal with IL-6 worked out at 4 %Rmax.

B4: IL-6 Unfunctionalized-3 (ssDNA)
DNA: CTCGGATGAACCTGGACTCTGTTTTTACTACCGCGCTAGCCGCCTCATCCGTTTTAGCGCCATGCATCGAAGCCAAGATTC
In the series with IL-6, B4 had a binding signal of 3 %Rmax.

B5: IL-6 Unfunctionalized-2 (ssDNA)
DNA: CTCGGATGAACCTGGACTTTACTGCGGCGCCAGCCGTGCCCATCCTTTCTTCATCCGTGCCCAGCATCGAAGCCAAGATTC
B5 registered a binding signal with IL-6 of 3 %Rmax.

B6: IL-6 Unfunctionalized-4 (ssDNA)
DNA: CTCGGATGAACCTGGACTTAATGATGCTCATGGTGCTCTTCATCACCATCTTCGTTCCATCCTGCATCGAAGCCAAGATTC
B6 returned a binding signal in the series with IL-6 of 4 %Rmax.

B7: PCSK9 Charged-2 (ssDNA)
DNA: CGAATCAGATTGGACCAGTTTCATCCCTTTTTGCCACCCCTTTGTTGTCCACCCCCATGTCCTGAGTCCAGATGTAGGTAG
modifications: none (no functionalized codon)
B7: the binding signal with PCSK9 is 11 %Rmax.

B8: PCSK9 Unfunctionalized-1 (ssDNA)
DNA: CGAATCAGATTGGACCAGTTACCGCCCTCTCCCTTTTGTCCCCTCCGTTGTTTCTCTTTCCCTGAGTCCAGATGTAGGTAG
In the series with PCSK9, B8 yielded a binding signal of 30 %Rmax.
